B1: Twister Ribozyme (parent)
chain: AACACUGCCAAUGCCGGUCCCAAGCCCGGAUAAAAGUGGAGGGGGCGG

Variants of: B1
Assay: self-cleavage, relative activity (ratio to wild type); higher = more cleavage; co-transcriptional

Variant	self-cleavage
AAUACUGCCAAUGCCGGUCCCCAGCCCGGAUAAAAGUGGAGGGGGCGG	0.549
AAUACUGCCAAUGCCGGUCCCGAGCCCGGAUAAAAGUGGAGGGGGCGG	0.0518
AAUACUGCCAAUGCCGGUCCCUAGCCCGGAUAAAAGUGGAGGGGGCGG	0.255
AAGACUGCCAAUGCGGGUCCCAAGCCCGGAUAAAAGUGGAGGGGGCGG	0.133
AAGACUGCCAAUGCAGGUCCCAAGCCCGGAUAAAAGUGGAGGGGGCGG	0.161
AAGACUGCCAAUGCUGGUCCCAAGCCCGGAUAAAAGUGGAGGGGGCGG	0.389
AAGACUGCCAAUGCCGGUCCCAAGCACGGAUAAAAGUGGAGGGGGCGG	0.121
AAGACUGCCAAUGCCGGUCCCAAGCUCGGAUAAAAGUGGAGGGGGCGG	0.137
AAUACUGCCAAUGCCGGUCCCAAGCCCGGAUAAUAGUGGAGGGGGCGG	0.314
AAUACUGCCAAUGCCGGUCCCAAGCCCGGAUAAGAGUGGAGGGGGCGG	0.153
AAGACUGCCAAUGCCGGUCCCAAGCCCGGAGAAAAGUGGAGGGGGCGG	0.44
AAGACUGCCAAUGCCGGUCCCAAGCCCGGAUAAAAAUGGAGGGGGCGG	0.124
AAGACUGCCAAUGCCGGUCCCAAGCCCGGAUAAAAUUGGAGGGGGCGG	0.144
AAGACUGGCAAUGCCGGUCCCAAGCCCGGAUAAAAGUGGAGGGGGCGG	0.153
AAGACUGUCAAUGCCGGUCCCAAGCCCGGAUAAAAGUGGAGGGGGCGG	0.389
AAGACUGCCAAUGCCGGUCCCAAGCCCGGAUAAAAGUGGAGGGGCCGG	0.207
AAGACUGCCAAUGCCGGUCCCAAGCCCGGAUAAAAGUGGAGGGGACGG	0.479
AAUACUGCCAAUGCCGGUCGCAAGCCCGGAUAAAAGUGGAGGGGGCGG	0.0703
AAUACUGCCAAUGCCGGUCACAAGCCCGGAUAAAAGUGGAGGGGGCGG	0.07
AAUACUGCCAAUGCCGGUCCCAAGCCCGGAUAAAAAUGGAGGGGGCGG	0.115
AAGACUGCCAAUGCCGGCCCCAAGCCCGGAUAAAAGUGGAGGGGGCGG	0.147
AAGACUGCCAAUGCCGGUCCCAAGCCUGGAUAAAAGUGGAGGGGGCGG	0.327

Variant	self-cleavage
AAGACUGCCAAUGCCGGUCCCAAGCCGGGAUAAAAGUGGAGGGGGCGG	0.0859
AAUACUGCCAAUACCGGUCCCAAGCCCGGAUAAAAGUGGAGGGGGCGG	0.402
AAUACUGCCAAUGCCGGUCCCACGCCCGGAUAAAAGUGGAGGGGGCGG	0.12
AAUACUGCCAAUGCCGGUCCCAAGCACGGAUAAAAGUGGAGGGGGCGG	0.148
AAUACUGCCAAUGCCGGUCCCAAGCCCGGAUAAAAGUGGAAGGGGCGG	0.117
AAUACUGCCAAUGCCGGUCCCAAGCCCGGAUAAAAGUGGACGGGGCGG	0.099
AAUACUGCCAAUGCCGGUGCCAAGCCCGGAUAAAAGUGGAGGGGGCGG	0.106
AAGACUGCCAAUGCCAGUCCCAAGCCCGGAUAAAAGUGGAGGGGGCGG	0.271
AAGACUGCCAAUGCCCGUCCCAAGCCCGGAUAAAAGUGGAGGGGGCGG	0.123
AAGACUGCCAAUGCCUGUCCCAAGCCCGGAUAAAAGUGGAGGGGGCGG	0.608
AAUACUGCCAAUGCCGGUCCCAAGCCCGGAUAAAAGUGGAGGGGGCGG	0.48
AAUACUGCCAAUGCCGGUCCCAAGCCCGGAUAAAAGUGGCGGGGGCGG	0.0947
AAUACUGCCAAUGCCGGUCCUAAGCCCGGAUAAAAGUGGAGGGGGCGG	0.0611
AAUACUGCCAAUGCCGGUCCCAAGACCGGAUAAAAGUGGAGGGGGCGG	0.0634
AAUACUGCCAAUGCCGGUCCCAAGGCCGGAUAAAAGUGGAGGGGGCGG	0.0982
AAGACUGCCAAUGCCGGUCCCAAGCCCGGAUAAAAGUGGAGGGCGCGG	0.345
AAGACUGCCAAUGCCGGUCCCAAGCCCGGAUAAAAGUGGAGGGUGCGG	0.425
AAGACUGCCAAUGCCGUUCCCAAGCCCGGAUAAAAGUGGAGGGGGCGG	0.0757
AAGACUGCCAAUGCCGCUCCCAAGCCCGGAUAAAAGUGGAGGGGGCGG	0.0532
AAUACUGCCAAUGCUGGUCCCAAGCCCGGAUAAAAGUGGAGGGGGCGG	0.335
AAUACUGCCAAUGCGGGUCCCAAGCCCGGAUAAAAGUGGAGGGGGCGG	0.125
AAUACUGCCAAUGACGGUCCCAAGCCCGGAUAAAAGUGGAGGGGGCGG	0.351

Variant	self-cleavage
AAUACUGCCAAUGGCGGUCCCAAGCCCGGAUAAAAGUGGAGGGGGCGG	0.0572
AAUACUGCCAAUGUCGGUCCCAAGCCCGGAUAAAAGUGGAGGGGGCGG	0.376
AAUACUGCCAAUGCCGGUCCCAAGCCCGGAUAAAAGUGGAGGGGGGGG	0.526
AAUACUGCCAAUGCCGGUCCCAAGCCCGGAUAAAAGUGGAGGGGGUGG	0.503
AAUACUGCCAAUGCCGGUCCCAAGCCCGGAUAAAGGUGGAGGGGGCGG	0.136
AAUACUGCCAAUGCCGGUCCCAAGCCCGGCUAAAAGUGGAGGGGGCGG	0.335
AAUACUGCCAAUGCCGGUCCCAAGCCCGGGUAAAAGUGGAGGGGGCGG	0.422
AAUACUGCCUAUGCCGGUCCCAAGCCCGGAUAAAAGUGGAGGGGGCGG	0.584
AAUACUGCCGAUGCCGGUCCCAAGCCCGGAUAAAAGUGGAGGGGGCGG	0.474
AAUACUGCCCAUGCCGGUCCCAAGCCCGGAUAAAAGUGGAGGGGGCGG	0.61
AAUACUGCCAAUGCCGGUCCCAAGCCCGGAUAAAAGUUGAGGGGGCGG	0.409
AAUACUGCCAAUGCCGGUCCCAAGCCCGGAUCAAAGUGGAGGGGGCGG	0.532
AAUACUGCCAAUGCCGGUCCCAAGCCCGGAUGAAAGUGGAGGGGGCGG	0.369
AAUACUGCCAAUGCCGGUCCCAAGCCCGGAUUAAAGUGGAGGGGGCGG	0.402
AAUACUGCCAAUGCCGGUCCCAAACCCGGAUAAAAGUGGAGGGGGCGG	0.0721
AAGACUGCUAAUGCCGGUCCCAAGCCCGGAUAAAAGUGGAGGGGGCGG	0.191
AAGACUGCCAAUGCCGGUCCCAAGGCCGGAUAAAAGUGGAGGGGGCGG	0.109
AAGACUGCCAAUGCCGGUCCCAAGUCCGGAUAAAAGUGGAGGGGGCGG	0.317
AAUACUGCCAAUGCCGGUCCCAAGCCCGGAUAUAAGUGGAGGGGGCGG	0.471
AAUACUGCCAAUGCCGGUCCCAAGCCCGGAUACAAGUGGAGGGGGCGG	0.476
AAUACUGCCAAUGCCGGUCCCAAGCCCGGAUAAAAGUGGAGGGAGCGG	0.382
AAUACUGCCAAUGCCGGUCCCAAGCCCGGAUAAAAGUGGAGGGUGCGG	0.436

Variant	self-cleavage
AAGACUGCCAAUGCCGGUCUCAAGCCCGGAUAAAAGUGGAGGGGGCGG	0.295
AAGACUGCCAAUGCCGGUCGCAAGCCCGGAUAAAAGUGGAGGGGGCGG	0.0675
AAUACUGCCAAUGCCGGUCCCAAGCCCGCAUAAAAGUGGAGGGGGCGG	0.277
AAUACUGCCAAUGCCGGUCCCAAGCCCGUAUAAAAGUGGAGGGGGCGG	0.464
AAGACUGCCAAUGCCGGUCCCAAGCCCGGAUAAAAGUGGAGGGGGCGA	0.405
AAGACUGCCAAUGCCGGUCCCAAGCCCGGAUAAAAGUGGAGGGGGCGU	0.549
AAGACUGCCAAUGCCGGUCCCAAGCCCGGAUAAAAGUGGAGGGGGCGC	0.65
AAUACUGCCAAUGCCGCUCCCAAGCCCGGAUAAAAGUGGAGGGGGCGG	0.0683
AAUACUGCCAAUGCCGUUCCCAAGCCCGGAUAAAAGUGGAGGGGGCGG	0.0762
AAGACUGCCAAUGCCGGUCCCAAGCCCGCAUAAAAGUGGAGGGGGCGG	0.236
AAGACUGCCAAUGCCGGUCCCAAGCCCGUAUAAAAGUGGAGGGGGCGG	0.394
AAUGCUGCCAAUGCCGGUCCCAAGCCCGGAUAAAAGUGGAGGGGGCGG	0.183
AAGACUGCCAAUGCCGGUCCCAAGCCCGGAUAAAAGUGGAGGGGGCUG	0.361
AAGACUGCCAAUGCCGGUCCCAAGCCCGGAUAAAAGUGGAGGGGGCAG	0.275
AAUACUGCCAAUGCCGGUCCCAAGCCCUGAUAAAAGUGGAGGGGGCGG	0.325
AAUACUACCAAUGCCGGUCCCAAGCCCGGAUAAAAGUGGAGGGGGCGG	0.0905
AAUACUCCCAAUGCCGGUCCCAAGCCCGGAUAAAAGUGGAGGGGGCGG	0.0424
AAGACUGCCAAUGCCGGUCCCAAGCCCGGAUAAAAGUGGAGUGGGCGG	0.118
AAGACUGCCAAUGCCGGUCCCAAGCCCGGAUAAAAGUGGAGAGGGCGG	0.111
AAGACUGCCAAUGCCGGUCCCAAGCCCGGAUAAAAGUGGAGCGGGCGG	0.128
AAGACUGCCAAUGCCGGUCCCAACCCCGGAUAAAAGUGGAGGGGGCGG	0.0852
AAGACUUCCAAUGCCGGUCCCAAGCCCGGAUAAAAGUGGAGGGGGCGG	0.057

Variant	self-cleavage
AAGACUGCCAAUGCCGGUCCCAAGCCCGGAUAAAAGUGGACGGGGCGG	0.0954
AAGACUGCCAAUGCCGGUCCCAAGCCCGGAUAAAAGUGGAAGGGGCGG	0.209
AAGACUGCCAAAGCCGGUCCCAAGCCCGGAUAAAAGUGGAGGGGGCGG	0.658
AAGACUGCCAACGCCGGUCCCAAGCCCGGAUAAAAGUGGAGGGGGCGG	0.447
AAGACUGCCAAGGCCGGUCCCAAGCCCGGAUAAAAGUGGAGGGGGCGG	0.4
AAGACUGCCAAUGCCGGUCCAAAGCCCGGAUAAAAGUGGAGGGGGCGG	0.0645
AAUACUGCGAAUGCCGGUCCCAAGCCCGGAUAAAAGUGGAGGGGGCGG	0.12
AAUACUGCAAAUGCCGGUCCCAAGCCCGGAUAAAAGUGGAGGGGGCGG	0.147
AAUACUGCCAAUGCCGGUCCCAAGCCCGGAUAAAAGUGGAGUGGGCGG	0.0877
AAUACUGCCAAUGCCGGUCCCAAGCCCGGAUAAAAGUGGAGAGGGCGG	0.0772
AAUACUGCCAAUGCCGGUCCCAAGCCCGGAUAAAAGUGUAGGGGGCGG	0.066
AAGACUGCCAAUGCCGGUCCCAAGCCCCGAUAAAAGUGGAGGGGGCGG	0.167
AAGACUGCCAAUGCCGGUCCCAAGCCCUGAUAAAAGUGGAGGGGGCGG	0.253
AAGACUGCCAAUGCCGGUCCCAAGCCCAGAUAAAAGUGGAGGGGGCGG	0.239
AAGACUGCCAAUGCCGGUUCCAAGCCCGGAUAAAAGUGGAGGGGGCGG	0.265
AAGACUGCCAAUGCCGGUGCCAAGCCCGGAUAAAAGUGGAGGGGGCGG	0.107
AAGACUGCCAAUUCCGGUCCCAAGCCCGGAUAAAAGUGGAGGGGGCGG	0.0808
AAUACUGGCAAUGCCGGUCCCAAGCCCGGAUAAAAGUGGAGGGGGCGG	0.0577
AAUACUGUCAAUGCCGGUCCCAAGCCCGGAUAAAAGUGGAGGGGGCGG	0.216
AAUACUGACAAUGCCGGUCCCAAGCCCGGAUAAAAGUGGAGGGGGCGG	0.17

— the RNAGym collection of RNA variant scans (doi:10.7554/elife.80360)
